Measured values taken from IntAct's records for PubMed 25525273.

B1: Krev interaction trapped protein 1 (Homo sapiens), O00522 (parent)
chain: MGNPENIEDAYVAVIRPKNTASLNSREYRAKSYEILLHEVPIEGQKKKRKKVLLETKLQGNSEITQGILDYVVETTKPISPANQGIRGKRVVLMKKFPLDGEKMGREASLFIVPSVVKDNTKYTYTPGCPIFYCLQDIMRVCSESSTHFATLTARMLIALDKWLDERHAQSHFIPALFRPSPLERIKTNVINPAYATESGQTENSLHMGYSALEIKSKMLALEKADTCIYNPLFGSDLQYTNRVDKVVINPYFGLGAPDYSKIQIPKQEKWQRSMSSVTEDKERQWVDDFPLHRSACEGDSELLSRLLSERFSVNQLDSDHWAPIHYACWYGKVEATRILLEKGKCNPNLLNGQLSSPLHFAAGGGHAEIVQILLNHPETDRHITDQQGRSPLNICEENKQNNWEEAAKLLKEAINKPYEKVRIYRMDGSYRSVELKHGNNTTVQQIMEGMRLSQETQQYFTIWICSENLSLQLKPYHKPLQHVRDWPEILAELTNLDPQRETPQLFLRRDVRLPLEVEKQIEDPLAILILFDEARYNLLKGFYTAPDAKLITLASLLLQIVYGNYESKKHKQGFLNEENLKSIVPVTKLKSKAPHWTNRILHEYKNLSTSEGVSKEMHHLQRMFLQNCWEIPTYGAAFFTGQIFTKASPSNHKVIPVYVGVNIKGLHLLNMETKALLISLKYGCFMWQLGDTDTCFQIHSMENKMSFIVHTKQAGLVVKLLMKLNGQLMPTERNS

Variants of: B1
Settings: with ccm2_human CCM2, Q9BSQ5
Chain of ccm2_human CCM2, Q9BSQ5 (Q9BSQ5 whole entry): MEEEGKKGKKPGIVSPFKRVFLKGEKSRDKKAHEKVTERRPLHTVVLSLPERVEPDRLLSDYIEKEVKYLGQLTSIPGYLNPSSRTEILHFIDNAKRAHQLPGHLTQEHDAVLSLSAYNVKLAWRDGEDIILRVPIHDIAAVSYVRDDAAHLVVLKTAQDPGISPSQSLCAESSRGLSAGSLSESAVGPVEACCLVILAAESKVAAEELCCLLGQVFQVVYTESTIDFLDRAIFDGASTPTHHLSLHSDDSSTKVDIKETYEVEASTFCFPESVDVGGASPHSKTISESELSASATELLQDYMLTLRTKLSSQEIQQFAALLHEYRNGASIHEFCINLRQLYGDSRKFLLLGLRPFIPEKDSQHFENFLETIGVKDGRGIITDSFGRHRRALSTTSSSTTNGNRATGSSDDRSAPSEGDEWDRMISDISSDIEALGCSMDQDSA

effect of a mutation on the interaction	Variant
with no effect	F234A
with no effect	Y252A;F253A
decreasing interaction strength	F234A;Y252A;F253A
with no effect	Y195A

Variants of: B1
Settings: with ccm2_human CCM2, Q9BSQ5
Remark: another data set of the same source

effect of a mutation on the interaction	Variant
decreasing interaction strength	V244L
disrupting interaction strength	Y252A;F253A
disrupting interaction strength	V248D
